In article PMC10388305, “Synthesis and Evaluation of a Monomethyl Auristatin E—Integrin αvβ6 Binding Peptide–Drug Conjugate for Tumor Targeted Drug Delivery” (Journal of Medicinal Chemistry, 2023):
Read-outs that look alike come from different tables or passages of the source.

Tests used:
BxPC-3 (+) cells = assay: Cell binding assay, BxPC-3; type: cell-based; conditions: 1 h, 37 °C, γ-counter, n = 3
Text: (§1) Binding to cells with minimal to no expression of integrin αvβ6 was low at 4.4 ± 0.1% to DX3puro cells and 7.9 ± 0.4% to pancreatic MIA PaCa-2 cells. Binding of [^64Cu]PDC-1 to DX3puroβ6 (+) and BxPC-3 (+) was reduced by adding increasing amounts of DOTA-PDC-1, illustrating that the αvβ6-selective uptake could be blocked (Figure S3). Internalization of [^64Cu]-PDC-1 into cells was high with >50% of the bound radioactivity internalized for all cells expressing the integrin αvβ6. In comparison, cell binding of [^64Cu]2 to DX3puroβ6 (+) cells was 58.8 ± 2.3, and 3.3 ± 0.4% to the DX3puro (−) cells.
(§2) Cell binding and internalization assay. Binding and internalization were determined as previously described. […] The fraction of bound radioactivity was determined with a γ-counter (by measuring cell pellet and combined supernatants). To determine the fraction of internalized radioactivity, the cells were re-pelleted, and re-suspended in acidic wash buffer (0.2 M sodium acetate, 0.5 M sodium chloride, pH = 2.5, 300 μL, 4 °C, 5 min) to release surface bound activity, followed by a wash with PBS (300 μL). The internalized fraction was determined with a γ-counter (cell pellet vs. radioactivity released into supernatant). A Wizard 1470 or Wizard 2 2470 automatic γ-counter (Perkin-Elmer, Waltham, MA) was used to measure radioactivity samples. […]

[1] = Blocking biodistribution, paired DX3puroβ6/DX3puro model; type: in vivo, mice; conditions: female, athymic nude, mouse, iv, total radioactivity, 4 h p.i., DOTA-2 (50 mg/kg, 205 nmol) i.v. 10 min prior, γ-counter, mean ± SD, n = 2
Protocol: Aliquots of the formulated [^64Cu]PDC-1 in isotonic 0.9% saline (4.81–5.74 MBq, 1.7–2.1 μg, 0.26–0.31 nmol, 100 μL, pH 7.2) were injected i.v. as described above. Following the conscious uptake period, the mice were anesthetized (5% isoflurane), euthanized, and dissected (n ≥ 3/model/time point [4, 24, and 48 h]; the 48 h time point also included the imaging animals sacrificed after the PET scans). Tissues were collected, washed, weighed, and radioactivity measured in a γ-counter. Calibrated, decay-corrected radioactivity was expressed as the percentage of injected dose per gram of tissue (% ID/g). Data are reported as mean ± SD. The mean weights and standard deviation of the DX3puroβ6/DX3puro paired tumor model biodistribution mice were 24.3 ± 1.4 g at 4 h, 28.2 ± 2.9 g at 24 h, and 27.7 ± 2.6 g at 48 h. The mean weights and standard deviation of the BxPC-3 tumor model biodistribution mice were 25.1 ± 1.9 g at 4 h, 27.0 ± 1.1 g at 24 h and 27.1 ± 3.2 g at 48 h. For in vivo blocking studies, DOTA-2 (50 mg/kg, 205 nmol, 1.4 mg in 100 μL 0.9% saline) was injected i.v. into two animals/tumor model 10 min prior to [^64Cu]PDC-1. The animals were sacrificed after 4 h, tissues collected, washed, weighed, and radioactivity measured in a γ-counter. The mean weights and standard deviation for the blocking mice were 24.6 ± 0 and 27.9 ± 0.3 g for the DX3puroβ6/DX3puro paired and BxPC-3 tumor models, respectively.
Blocking biodistribution data of [64Cu]PDC-1 in paired DX3puroβ6/DX3puro and BxPC-3 tumor models.
Tumor Model DX3puroβ6/DX3puro BxPC-3
Table S6. Blocking biodistribution data of [ 64Cu]PDC-1 in paired DX3puroβ6/DX3puro and BxPC-3 tumor
models. Tissue uptake is expressed as the mean of the percentage of injected dose per gram of tissue ±
SD (n = 2/model, n/a = not applicable. P = 0.53 for DX3puroβ6 vs. DX3puro; P = 0.52 for BxPC-3 vs.

MIA PaCa-2 (−) cells = assay: Cell binding assay, MIA PaCa-2; type: cell-based; conditions: 1 h, 37 °C, γ-counter, n = 3
Text: as §1, §2

DX3puroβ6 (+) cells = assay: Cell binding assay, DX3puroβ6; type: cell-based; conditions: 1 h, 37 °C, γ-counter, n = 3
Text: as §1, §2

DX3puro (−) cells = assay: Cell binding assay, DX3puro; type: cell-based; conditions: 1 h, 37 °C, γ-counter, n = 3
Text: as §1, §2

CC[C@H](C)[C@@H]([C@@H](CC(=O)N1CCC[C@H]1[C@H](OC)[C@@H](C)C(=O)N[C@H](C)[C@@H](O)c1ccccc1)OC)N(C)C(=O)[C@@H](NC(=O)[C@H](C(C)C)N(C)C(=O)OCc1ccc(NC(=O)[C@H](CCCNC(N)=O)NC(=O)[C@@H](NC(=O)CCOCCOCCNC(=O)CCN2C(=O)CC(SC[C@H](NC(=O)CN3CCN(CC(=O)O)CCN(CC(=O)O)CCN(CC(=O)O)CC3)C(=O)NCCOCCOCCOCCOCCOCCOCCOCCOCCOCCOCCOCCOCCOCCOCCOCCOCCOCCOCCOCCOCCOCCOCCOCCOCCOCCOCCOCCOCCC(=O)N[C@@H](CC(N)=O)C(=O)N[C@@H](C)C(=O)N[C@H](C(=O)N3CCC[C@H]3C(=O)N[C@@H](CC(N)=O)C(=O)N[C@@H](CC(C)C)C(=O)N[C@@H](CCCNC(=N)N)C(=O)NCC(=O)N[C@@H](CC(=O)O)C(=O)N[C@@H](CC(C)C)C(=O)N[C@@H](CCC(N)=O)C(=O)N[C@H](C(=O)N[C@@H](CC(C)C)C(=O)N[C@@H](C)C(=O)N[C@@H](CCC(N)=O)C(=O)N[C@@H](CCCNC(=N)N)C(=O)N[C@H](C(=O)N[C@@H](C)C(=O)N[C@@H](CCCNC(=N)N)C(=O)N[C@H](C(=O)NCCOCCOCCOCCOCCOCCOCCOCCOCCOCCOCCOCCOCCOCCOCCOCCOCCOCCOCCOCCOCCOCCOCCOCCOCCOCCOCCOCCOCCC(N)=O)[C@@H](C)O)C(C)C)C(C)C)C(C)C)C2=O)C(C)C)cc1)C(C)C (stereo partly drawn) [[^64Cu]PDC-1, metal not drawn]
Cell binding (BxPC-3 (+) cells): 62.0 ± 1.0%
tissue uptake at 4 h ([1]; DX3puro (αvβ6 −) tumor, read-out: Tumor (αvβ6 −) DX3puro uptake, blocked): 0.42 ± 0.04 %ID/g
tissue uptake at 4 h ([1]; DX3puroβ6 (αvβ6 +) tumor, read-out: Tumor (αvβ6 +) DX3puroβ6 uptake, blocked): 0.39 ± 0.04 %ID/g
tissue uptake at 4 h ([1]; blood, read-out: Blood uptake, blocked): 0.08 ± 0.02 %ID/g
tissue uptake at 4 h ([1]; bone, read-out: Bone uptake, blocked): 0.1 ± 0.03 %ID/g
tissue uptake at 4 h ([1]; brain, read-out: Brain uptake, blocked): 0.02 %ID/g
tissue uptake at 4 h ([1]; gall bladder, read-out: Gall Bladder uptake, blocked): 0.28 ± 0.4 %ID/g
tissue uptake at 4 h ([1]; heart, read-out: Heart uptake, blocked): 0.17 ± 0.03 %ID/g
tissue uptake at 4 h ([1]; kidney, read-out: Kidney uptake, blocked): 36.4 ± 5.43 %ID/g
tissue uptake at 4 h ([1]; large intestines, read-out: Large Intestines uptake, blocked): 0.51 ± 0.1 %ID/g
tissue uptake at 4 h ([1]; liver, read-out: Liver uptake, blocked): 1.39 ± 0.45 %ID/g
tissue uptake at 4 h ([1]; lung, read-out: Lung uptake, blocked): 0.39 ± 0.09 %ID/g
tissue uptake at 4 h ([1]; muscle, read-out: Muscle uptake, blocked): 0.04 %ID/g
tissue uptake at 4 h ([1]; pancreas, read-out: Pancreas uptake, blocked): 0.08 ± 0.01 %ID/g
tissue uptake at 4 h ([1]; skin, read-out: Skin uptake, blocked): 0.29 ± 0.02 %ID/g
tissue uptake at 4 h ([1]; small intestines, read-out: Small Intestines uptake, blocked): 0.36 ± 0.02 %ID/g
tissue uptake at 4 h ([1]; spleen, read-out: Spleen uptake, blocked): 0.19 ± 0.01 %ID/g
tissue uptake at 4 h ([1]; stomach, read-out: Stomach uptake, blocked): 0.27 ± 0.06 %ID/g
Cell binding (MIA PaCa-2 (−) cells): 7.9 ± 0.4%
Cell binding (DX3puroβ6 (+) cells): 67.0 ± 2.3%
Cell binding (DX3puro (−) cells): 4.4 ± 0.1%
